Measurements taken from PMC4167179 (Results in Pharma Sciences, 2012).
No end group written: not given here. mPEG 20 kDa = linear 20 kDa mPEG attached to the Gln side chain; mPEG 5 kDa = linear 5 kDa mPEG attached to the Gln side chain

Columns and labels:
rat β-cell line RIN-m5F = experiment: In vitro insulin secretion, static incubation of RIN-m5F cells; format: cell-based; settings: for EC50: read-out: In vitro insulin secretion in rat β-cell line RIN-m5F, EC50, 2 mM glucose, 30 min incubation, rat insulin ELISA, mean ± SEM of three experiments
[1] = Pharmacokinetics after subcutaneous injection in rats; format: in vivo, Sprague-Dawley rats; settings: 1 mg/kg s.c.; for Cmax / tmax: plasma ELISA; for tmax: non-compartmental

Substance	EC50 (rat β-cell line RIN-m5F) [nM]	tmax ([1]; four animals) [h]	further results
GLP-1-(7-36)-amide-Q^23-PEG 50 kDa: GLP-1(7-36)-amide monopegylated at glutamine 23 with branched 50 kDa mPEG-NH2	1870 ± 1	–	–
GLP-1-(7-36)-(T11Q–Q23N)-amide-Q^11-PEG 5 kDa (HAEGQ(mPEG 5 kDa)FTSDVSSYLEGNAAKEFIAWLVKGR-NH2; UniProt P01275 98-127, looked up, variant T11Q Q23N)	106.3 ± 0.5	–	–
GLP-1-(7-36)-amide-Q^23-PEG 5 kDa: GLP-1(7-36)-amide monopegylated at glutamine 23 with linear 5 kDa mPEG-NH2	–	3	t1/2 ([1]; elimination phase of log transformed curve, four animals): 1.7 h; Cmax ([1]; four animals): 160.4 ng/mL

The next lines start with results.

EC50 (rat β-cell line RIN-m5F) [nM]	Substance	tmax ([1]; four animals) [h]	further results
34.4 ± 0.8	GLP-1-(7-36)-amide-Q^23-PEG 20 kDa: GLP-1(7-36)-amide monopegylated at glutamine 23 with linear 20 kDa mPEG-NH2	9	AUC (AUC96 h) ([1]; 0→96 h, linear trapezoidal rule, four animals): 16,799.8 ng/ml×h; plasma concentration after 96 h ([1]; 96 h): around 5 ng/ml; Cmax ([1]; four animals, 1 mg/kg): 640 ng/mL
35 ± 3	GLP-1-(7-36)-(Q23N–A30Q)-amide-Q^30-PEG 20 kDa (HAEGTFTSDVSSYLEGNAAKEFIQ(mPEG 20 kDa)WLVKGR-NH2; UniProt P01275 98-127, looked up, variant Q23N A30Q)	–	In vitro insulin secretion, Relative potency (rat β-cell line RIN-m5F; 1/(EC50 analog/EC50 GLP-1(7-36)-amide)): 0.017
